Assay results reported in the supplement of paper PMC10567573.

B1: NET1 (parent)
chain: PTPAKRRSSALWSEMLDITMKESL

Variants of: B1
Assay: protein stability index of a GFP-peptide fusion (GPS, HEK-293T) (PSI 1-6); higher = more stable
Details: c terminus: a fixed tail appended
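Note: lentivirally expressed fusions sorted by FACS into six bins by GFP to DsRed ratio, PSI derived from sequencing read proportions per bin multiplied by bin number.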

Variant	protein stability index
PTPAKRRSSALWSEMLDETMKESL [I18E]	2.9
PTPAKRRSSALWSEMLDGTMKESL [I18G]	3.36
PTPAKRRSSALWSEMLDNTMKESL [I18N]	2.41
PTPAKRRSSALWSEMLDHTMKESL [I18H]	2.53
PTPAKRRSSALWSEMLDYTMKESL [I18Y]	2.97
PTPAKRRSSALWSEMLDTTMKESL [I18T]	2.62
PTPAKRRSSALWSEMLDFTMKESL [I18F]	2.46
PTPAKRRSSALWSEMLDATMKESL [I18A]	2.12
PTPAKRRSSALWSEMLDWTMKESL [I18W]	1.91
PTPAKRRSSALWSEMLDVTMKESL [I18V]	3.12
PTPAKRRSSALWSEMLDITMKEEL [S23E]	2.14
PTPAKRRSSALWSEMLDITMKEFL [S23F]	1.69
PTPAKRRSSALWSEMLDITMKELL [S23L]	2.66
PTPAKRRSSALWSEMLDITMKEKL [S23K]	2.79
PTPAKRRSSALWSEMLDITMKEDL [S23D]	1.93
PTPAKRRSSALWSEMLDITMKEGL [S23G]	2.33
PTPAKRRSSALWSEMLDITMKENL [S23N]	2.48
PTPAKRRSSALWSEMLDITMKEIL [S23I]	1.89
PTPAKRRSSALWSEMLDITMKEML [S23M]	1.33
PTPAKRRSSALWSEMLDITMKECL [S23C]	1.4
PTPAKRRSSALQSEMLDITMKESL [W12Q]	4.46
PTPAKRRSSALMSEMLDITMKESL [W12M]	3.51
PTPAKRRSSALLSEMLDITMKESL [W12L]	3.31
PTPAKRRSSALFSEMLDITMKESL [W12F]	3.26

Variant	protein stability index
PTPAKRRSSALESEMLDITMKESL [W12E]	4.65
PTPAKRRSSALASEMLDITMKESL [W12A]	4.09
PTPAKRRSSALPSEMLDITMKESL [W12P]	3.9
PTPAKRRSSALDSEMLDITMKESL [W12D]	5.38
PTPAKRRSSALYSEMLDITMKESL [W12Y]	2.78
PTPAKRRSSALNSEMLDITMKESL [W12N]	4.79
PTPAKRRSSALISEMLDITMKESL [W12I]	3.5
PTPAKRRSSALTSEMLDITMKESL [W12T]	4.19
PTPAKRRSSALGSEMLDITMKESL [W12G]	4.59
PTPAKRRSSALKSEMLDITMKESL [W12K]	3.74
PTPAKRRSSALVSEMLDITMKESL [W12V]	3.65
PTPAKRRSSALCSEMLDITMKESL [W12C]	4.32
PTPAKRRSSALSSEMLDITMKESL [W12S]	4.09
PTPAKRRSSALHSEMLDITMKESL [W12H]	3.62
PTPAKRRSSALWSEMLDITMKTSL [E22T]	3.06
PTPAKRRSSALWSEMLDITMKDSL [E22D]	2.1
PTPAKRRSSALWSEMLDITMKSSL [E22S]	2.56
PTPAKRRSSALWSEMLDITMKKSL [E22K]	1.48
PTPAKRRSSALWSEMLDITMKPSL [E22P]	1.72
PTPAKRRSSALWSEMLDITMKMSL [E22M]	2.6
PTPAKRRSSALWSEMLDITMKYSL [E22Y]	2.82
PTPAKRRSSALWSEMLDITMKHSL [E22H]	1.5
PTPAKRRSSALWSEMLDITMKRSL [E22R]	3.35
PTPAKRRSSALWSEMLDITMKWSL [E22W]	3.09

Variant	protein stability index
PTPAKRRSSALWSEMLDITMKQSL [E22Q]	2.57
PTPAKRRSSALWSEMLDITMKCSL [E22C]	1.52
PTPAKRRSSALWSEMLDITMKASL [E22A]	1
PTPAKRRSSALWSEMLDITMKGSL [E22G]	1.96
PTPAKRRSSALWSEMLDITMKFSL [E22F]	3.11
PTPAKRRSSALWSEMLDITMKNSL [E22N]	2.19
PTPAKRRSSALWSEMYDITMKESL [L16Y]	2.19
PTPAKRRSSALWSEMGDITMKESL [L16G]	2.33
PTPAKRRSSALWSEMQDITMKESL [L16Q]	2.92
PTPAKRRSSALWSEMEDITMKESL [L16E]	3.67
PTPAKRRSSALWSEMSDITMKESL [L16S]	3.17
PTPAKRRSSALWSEMADITMKESL [L16A]	2.59
PTPAKRRSSALWSEMPDITMKESL [L16P]	2.38
PTPAKRRSSALWSEMIDITMKESL [L16I]	2.84
PTPAKRRSSALWSEMHDITMKESL [L16H]	2.85
PTPAKRRSSALWSEMMDITMKESL [L16M]	2.2
PTPAKRRSSALWSEMTDITMKESL [L16T]	2.85
PTPAKRRSSALWSEMFDITMKESL [L16F]	2.1
PTPAKRRSSALWSEMNDITMKESL [L16N]	3.84
PTPAKRRSSALWSEMLIITMKESL [D17I]	2.31
PTPAKRRSSALWSEMLQITMKESL [D17Q]	1.85
PTPAKRRSSALWSEMLCITMKESL [D17C]	1.53
PTPAKRRSSALWSEMLYITMKESL [D17Y]	2.83
PTPAKRRSSALWSEMLKITMKESL [D17K]	1.25

Variant	protein stability index
PTPAKRRSSALWSEMLEITMKESL [D17E]	2.07
PTPAKRRSSALWSEMLNITMKESL [D17N]	2.75
PTPAKRRSSALWSEMLTITMKESL [D17T]	1.92
PTPAKRRSSALWSEMLAITMKESL [D17A]	1.95
PTPAKRRSSALWSEMLLITMKESL [D17L]	2.07
PTPAKRRSSALWSEMLMITMKESL [D17M]	1.26
PTPAKRRSSALWSEMLGITMKESL [D17G]	2.25
PTPAKRRSSALWSEMLRITMKESL [D17R]	2.27
PTPAKRRSSALWSEMLFITMKESL [D17F]	2
PTPAKRRSSALWSEMLPITMKESL [D17P]	2.83
PTPAKRRSSALWSEMLDITMEESL [K21E]	2.8
PTPAKRRSSALWSEMLDITMSESL [K21S]	2.73
PTPAKRRSSALWSEMLDITMTESL [K21T]	2.21
PTPAKRRSSALWSEMLDITMAESL [K21A]	2.38
PTPAKRRSSALWSEMLDITMFESL [K21F]	1.17
PTPAKRRSSALWSEMLDITMVESL [K21V]	2.5
PTPAKRRSSALWSEMLDITMRESL [K21R]	2.33
PTPAKRRSSALWSEMLDITMYESL [K21Y]	2.03
PTPAKRRSSALWSEMLDITMIESL [K21I]	2.06
PTPAKRRSSALWSEMLDITMNESL [K21N]	3.67
PTPAKRRSSALWSEMLDITMDESL [K21D]	3.04
PTPAKRRSSALWSEMLDITMHESL [K21H]	2.25
